Where a chain is given by its changes, count along the chain named. Names may count otherwise.
B1: SA302a heavy chain variant N33bQ, C34A (antibody, human IgG1, V domains shown)
VH: QVQLQESGPGLVKPSQTLSLTCTVSGYSITSDYQAHWIRQPPGKGLEWIGYIHYSGSTNYNPSLKSRVTISRDTSKNQFSLKLSSVTAADTAVYYCARNYGSIYVNYFDYWGQGTLVTVSS
VL: EIVLTQSPATLSLSPGERATLSCSASSSVSYMYWYQQKPGQAPRPLIYRTSNLASGIPARFSGSGSGTDFTLTISSLEPEDFAVYYCQQYHSYPTFGGGTKVEIK
notes: library variant, human IgG1/kappa, from supernatant
B2: heavy chain library variant C34K (antibody, V domains shown)
VH: B1 VH with Q34N, A35K
VL: B1 VL
B3: heavy chain library variant C34P (antibody, V domains shown)
VH: B1 VH with Q34N, A35P
VL: B1 VL
B4: heavy chain library variant C34I (antibody, V domains shown)
VH: B1 VH with Q34N, A35I
VL: B1 VL
B5: heavy chain library variant C34Q (antibody, V domains shown)
VH: B1 VH with Q34N, A35Q
VL: B1 VL
B6: heavy chain library variant C34L (antibody, V domains shown)
VH: B1 VH with Q34N, A35L
VL: B1 VL
B7: heavy chain library variant C34D (antibody, V domains shown)
VH: B1 VH with Q34N, A35D
VL: B1 VL
B8: heavy chain library variant C34R (antibody, V domains shown)
VH: B1 VH with Q34N, A35R
VL: B1 VL
B9: heavy chain library variant C34E (antibody, V domains shown)
VH: B1 VH with Q34N, A35E
VL: B1 VL
B10: heavy chain library variant C34F (antibody, V domains shown)
VH: B1 VH with Q34N, A35F
VL: B1 VL
B11: heavy chain library variant C34H (antibody, V domains shown)
VH: B1 VH with Q34N, A35H
VL: B1 VL
B12: SA327a (antibody, human IgG1, V domains shown)
VH: B1 VH with Q34N
VL: B1 VL with S92G
notes: humanized; human IgG1 (suffix a), kappa
B13: SA328a (antibody, human IgG1, V domains shown)
VH: B1 VH with Q34N
VL: B1 VL with P94V
notes: as for B12
B14: SA321a (antibody, human IgG1, V domains shown)
VH: B1 VH with S31Q, Q34N, S57Q, N59L, Y100F
VL: B1 VL
notes: as for B12
B15: SA315a (antibody, human IgG1, V domains shown)
VH: B1 VH with Q34N, S57Q, N59M, Y100F
VL: B1 VL
notes: as for B12
B16: SA325a (antibody, human IgG1, V domains shown)
VH: B1 VH with Q34N
VL: B1 VL with Q89E
notes: as for B12
B17: SA319a (antibody, human IgG1, V domains shown)
VH: B1 VH with S31Q, Q34N, S57Q, Y100F
VL: B1 VL
notes: as for B12
B18: SA326a (antibody, human IgG1, V domains shown)
VH: B1 VH with Q34N
VL: B1 VL with Q89L
notes: as for B12
B19: SA318a (antibody, human IgG1, V domains shown)
VH: B1 VH with S31Q, Q34N, S57Q, N59M, Y100F
VL: B1 VL
notes: as for B12
B20: SA302a heavy chain variant N33bT, C34A (antibody, human IgG1, V domains shown)
VH: B1 VH with Q34T
VL: B1 VL
notes: as for B1
B21: SA313a (antibody, human IgG1, V domains shown)
VH: B1 VH with Q34N, N59M, Y100F
VL: B1 VL
notes: as for B12
B22: SA316a (antibody, human IgG1, V domains shown)
VH: B1 VH with Q34N, N59Y
VL: B1 VL
notes: as for B12
B23: heavy chain library variant C34N (antibody, V domains shown)
VH: B1 VH with Q34N, A35N
VL: B1 VL
notes: position 34 variant, human IgG1/kappa, from supernatant; C is the SA44a residue
B24: SA311a (antibody, human IgG1, V domains shown)
VH: B1 VH with Q34N, S57Q, N59M
VL: B1 VL
notes: as for B12
B25: SA312a (antibody, human IgG1, V domains shown)
VH: B1 VH with S31Q, Q34N, N59M
VL: B1 VL
notes: as for B12
B26: SA317a (antibody, human IgG1, V domains shown)
VH: B1 VH with Q34N, N59L
VL: B1 VL
notes: as for B12

Columns and labels:
cynomolgus IL-18BP = biological target: T1, cynomolgus IL-18BP (cynomolgus monkey); experiment: BLI single-concentration screen, apparent KD
T1 construct: Generated in-house; also called cyIL-18BP; cyno IL-18BP
T1 chain: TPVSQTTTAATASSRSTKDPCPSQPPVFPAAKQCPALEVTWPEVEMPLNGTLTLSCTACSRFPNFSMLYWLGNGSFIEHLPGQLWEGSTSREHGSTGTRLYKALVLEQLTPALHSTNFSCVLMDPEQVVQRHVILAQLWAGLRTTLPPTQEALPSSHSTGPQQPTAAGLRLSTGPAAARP

[1] = biological target: T2, human IL-18BP (interleukin-18 binding protein, isoform A) (human, UniProt O95998 31-194); experiment: BLI single-concentration screen, apparent KD
T2 construct: cell assays used Sino Biological 10357-H08H; PBMC assay 1 relies on endogenous IL-18BP; UniProt number is printed as 095998; also called hIL-18BP
T2 sequence: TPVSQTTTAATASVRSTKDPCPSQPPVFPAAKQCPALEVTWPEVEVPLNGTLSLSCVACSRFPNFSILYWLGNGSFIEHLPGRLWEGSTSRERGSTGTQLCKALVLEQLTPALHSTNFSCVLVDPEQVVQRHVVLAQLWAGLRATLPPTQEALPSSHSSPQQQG

[2] = biological target: T2, human IL-18BP (interleukin-18 binding …); experiment: BLI, affinity column of Table E8
[3] = biological target: T2, human IL-18BP (interleukin-18 binding …); experiment: cell-based or functional assay
[4] = biological target: T2, human IL-18BP (interleukin-18 binding …); experiment: BLI (Octet), mAb on AHC biosensor

| Binder | Kd (cynomolgus IL-18BP) [nM] | Kd [1] [nM] | Kd [2] [nM] | EC50 in PBMC Assay 1 (endogenous IL-18BP), IFNγ [3] [nM] | EC50 in PBMC Assay 2 (precomplexed IL-18BP), IFNγ [3] [nM] | Kd [4] [nM] |
| --- | --- | --- | --- | --- | --- | --- |
| B1 | 1.6 | 1.8 |  |  |  |  |
| B2 | 0.5 | 1 |  |  |  |  |
| B3 | 9.8 | 20.6 |  |  |  |  |
| B4 | 0.6 | 1 |  |  |  |  |
| B5 | 0.4 | 0.6 |  |  |  |  |
| B6 | 0.3 | 0.4 |  |  |  |  |
| B7 | 0.4 | 0.5 |  |  |  |  |
| B8 | 0.6 | 1.8 |  |  |  |  |
| B9 | 0.5 | 0.9 |  |  |  |  |
| B10 | 0.5 | 0.6 |  |  |  |  |
| B11 | 0.2 | 0.4 |  |  |  |  |
| B12 |  |  | 0.249 | 7.1 | 4 | 0.249 |
| B13 |  |  | 0.133 | 2 | 5.8 | 0.133 |
| B14 |  |  | 0.136 | 0.9 | 0.85 | 0.136 |
| B15 |  |  | 0.039 | 0.5 | 0.49 | 0.039 |
| B16 |  |  | 0.468 | 6.1 | 5 | 0.468 |
| B17 |  |  | 0.254 | 0.2 | 0.07 | 0.254 |
| B18 |  |  | 0.128 | 7.5 | 1.2 | 0.128 |
| B19 |  |  | 0.015 | 0.9 | 0.7 | 0.015 |
| B20 | 0.3 | 0.1 |  |  |  |  |
| B21 |  |  | 0.272 | 1.2 | 0.71 | 0.272 |
| B22 |  |  | 0.228 | 0.6 | 0.64 | 0.228 |
| B23 | 0.6 | 1 |  |  |  |  |
| B24 |  |  | 0.243 | 0.6 | 1.24 | 0.243 |
| B25 |  |  | 0.117 | 2.1 | 0.74 | 0.117 |
| B26 |  |  | 0.329 | 0.4 | 0.45 | 0.329 |

Source: patent US20250368745A1 (published 2025)
